System: gelatin

279Arg rare variant of MMP-9 (matrix metalloproteinase-9)
MMP-9 activity by zymography (gelatin in the polyacrylamide gel): Activity in both lanes 1 and 2 of FIG. 4 is similar

279Gln common variant of MMP-9 (matrix metalloproteinase-9)
MMP-9 activity by zymography (gelatin in the polyacrylamide gel): Activity in both lanes 1 and 2 of FIG. 4 is similar
